In US20100285451A1:

Biological target: Somatostatin 2 receptor-eYFP-α fusion (E. coli)
Test: cell-based or functional assay

EC50, arrestin assay (β-galactosidase complementation of β-arrestin-ω + GPCR-eYFP-α): 3 nM | EC50, internalization assay (β-galactosidase complementation of FYVE-ω + GPCR-eYFP-α): 7 nM | fold induction, internalization assay: 3 fold
Substance: somatostatin-14 (from UniProt P61278 103-116) (peptide)
